Measurements as given in patent US20200369765A1 (INNATE PHARMA, published 2020).
Residue numbers refer to the chain shown, from its start.

How the values were obtained:
Human Siglec-9 = molecular target: T1, Human Siglec-9 (human, UniProt Q9Y336 18-463); test: flow cytometry, CHO Siglec-9 cells, mean n = 2
T1 construct: On transfected CHO cells; also on YTS and KHYG-1 transfectants, primary NK cells and moDC; also called huSiglec-9; CD329
Description: Binding of humanized antibodies was tested on CHO cells transfected with human Siglec-9, in a titration experiment by flow cytometry. Cells were incubated 90 minutes at 37° C. in Staining Buffer (SB) with primary antibodies at 10 ug/ml and a series of dilution of 1:10. They were washed three times with SB, then incubated 30 minutes with a goat F(ab′)² Anti-human IgG (Fc) PE. EC₅₀ values (μg/ml) for Siglec-9 expressing cells are shown below.

[1] = molecular target: T2, Human Siglec-9 mutant M11 (human, UniProt Q9Y336 18-463); test: flow cytometry, HEK293T transfectants; '-' indicates full loss of binding
T2 construct: Expressed on HEK293T cells; also called Mutant 11

Siglec-9 Fc protein = molecular target: T3, Siglec-9 Fc protein (human); test: SPR (Biacore T200), Fab over immobilized Siglec-9 Fc, 1:1 model
T3 construct: Produced in CHO cells; also called human Siglec-9 Fc
Description: (§1) SPR measurements were performed on a Biacore™ T200 apparatus (Biacore™ GE Healthcare) at 25° C. In all Biacore™ experiments HBS-EP+(Biacore™ GE Healthcare) and NaOH 10 mM served as running buffer and regeneration buffer respectively. Sensorgrams were analyzed with Biacore™ T200 Evaluation software. Human siglec-9 and -7 multimeric proteins were cloned, produced and purified at Innate Pharma.
(§2) Proteins were immobilized covalently to carboxyl groups in the dextran layer on a Sensor Chip CM5. The chip surface was activated with EDC/NHS (N-ethyl-N′-(3-dimethylaminopropyl) carbodiamide hydrochloride and N-hydroxysuccinimide (Biacore™ GE Healthcare). Proteins were diluted to 10 μg/ml in coupling buffer (10 mM acetate, pH 4.2 & 5.0) and injected until the appropriate immobilization level was reached (i.e., 600 to 2000RU). Deactivation of the remaining activated groups was performed using 100 mM ethanolamine pH 8 (Biacore™, GE Healthcare).
(§3) The affinity study was carried out according to a standard Kinetic protocol recommended by the manufacturer (Biacore™ GE Healthcare kinetic wizard). […] The entire sensorgram sets were fitted using the 1:1 kinetic binding model. Monovalent affinities and kinetic association and dissociation rate constants are shown below in Table 2 below.

Human Siglec-9 mutant M5 = molecular target: T4, Human Siglec-9 mutant M5 (human, UniProt Q9Y336 18-463); test: flow cytometry, HEK293T transfectants
T4 construct: Expressed on HEK293T cells; also called Mutant 5

Human Siglec-9 mutant M6 = molecular target: T5, Human Siglec-9 mutant M6 (human, UniProt Q9Y336 18-463); test: flow cytometry, HEK293T transfectants
T5 construct: Expressed on HEK293T cells; also called Mutant 6

Human Siglec-9 mutant M7 = molecular target: T6, Human Siglec-9 mutant M7 (human, UniProt Q9Y336 18-463); test: flow cytometry, HEK293T transfectants
T6 construct: Expressed on HEK293T cells; also called Mutant 7

Human Siglec-9 mutant M2 = molecular target: T7, Human Siglec-9 mutant M2 (human, UniProt Q9Y336 18-463); test: flow cytometry, HEK293T transfectants
T7 construct: Expressed on HEK293T cells; also called Mutant 2

Siglec-7 Fc protein = molecular target: T8, Siglec-7 Fc protein (human); test: SPR (Biacore T200), Fab over immobilized Siglec-7 Fc, 1:1 model
T8 construct: Produced in CHO cells; also called human Siglec-7 Fc
Description: as §1, §2, §3

Human Siglec-9 mutant M8 = molecular target: T9, Human Siglec-9 mutant M8 (human, UniProt Q9Y336 18-463); test: flow cytometry, HEK293T transfectants
T9 construct: Expressed on HEK293T cells; also called Mutant 8
T9 sequence (Q9Y336 other isoform, or with tags, fused parts or gaps mutant): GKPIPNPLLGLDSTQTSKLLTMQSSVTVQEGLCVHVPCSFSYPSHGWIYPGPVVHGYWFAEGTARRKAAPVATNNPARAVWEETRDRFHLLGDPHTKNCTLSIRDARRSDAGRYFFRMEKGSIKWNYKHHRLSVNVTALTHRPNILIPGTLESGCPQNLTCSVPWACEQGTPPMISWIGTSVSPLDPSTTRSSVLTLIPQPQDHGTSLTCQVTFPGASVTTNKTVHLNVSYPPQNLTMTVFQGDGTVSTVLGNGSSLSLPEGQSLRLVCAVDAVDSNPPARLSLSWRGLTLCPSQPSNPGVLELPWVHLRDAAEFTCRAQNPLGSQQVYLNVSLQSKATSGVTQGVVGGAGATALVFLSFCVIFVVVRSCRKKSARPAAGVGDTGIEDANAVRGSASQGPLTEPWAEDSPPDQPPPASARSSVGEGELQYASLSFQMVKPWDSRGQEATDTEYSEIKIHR

T1 sequence (Q9Y336 18-463): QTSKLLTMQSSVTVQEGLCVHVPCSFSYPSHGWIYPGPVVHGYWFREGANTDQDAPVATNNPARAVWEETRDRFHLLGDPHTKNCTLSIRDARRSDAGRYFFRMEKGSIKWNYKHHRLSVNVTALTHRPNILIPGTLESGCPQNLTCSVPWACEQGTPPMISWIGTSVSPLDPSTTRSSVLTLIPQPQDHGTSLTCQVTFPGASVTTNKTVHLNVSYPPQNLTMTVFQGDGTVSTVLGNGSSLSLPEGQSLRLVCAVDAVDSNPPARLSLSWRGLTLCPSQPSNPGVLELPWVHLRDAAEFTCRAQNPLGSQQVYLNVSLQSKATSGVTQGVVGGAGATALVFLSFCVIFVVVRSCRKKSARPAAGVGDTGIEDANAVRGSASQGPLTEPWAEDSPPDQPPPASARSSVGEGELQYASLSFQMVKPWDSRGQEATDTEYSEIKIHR
T8 sequence (chain, as listed by the source limits assumed): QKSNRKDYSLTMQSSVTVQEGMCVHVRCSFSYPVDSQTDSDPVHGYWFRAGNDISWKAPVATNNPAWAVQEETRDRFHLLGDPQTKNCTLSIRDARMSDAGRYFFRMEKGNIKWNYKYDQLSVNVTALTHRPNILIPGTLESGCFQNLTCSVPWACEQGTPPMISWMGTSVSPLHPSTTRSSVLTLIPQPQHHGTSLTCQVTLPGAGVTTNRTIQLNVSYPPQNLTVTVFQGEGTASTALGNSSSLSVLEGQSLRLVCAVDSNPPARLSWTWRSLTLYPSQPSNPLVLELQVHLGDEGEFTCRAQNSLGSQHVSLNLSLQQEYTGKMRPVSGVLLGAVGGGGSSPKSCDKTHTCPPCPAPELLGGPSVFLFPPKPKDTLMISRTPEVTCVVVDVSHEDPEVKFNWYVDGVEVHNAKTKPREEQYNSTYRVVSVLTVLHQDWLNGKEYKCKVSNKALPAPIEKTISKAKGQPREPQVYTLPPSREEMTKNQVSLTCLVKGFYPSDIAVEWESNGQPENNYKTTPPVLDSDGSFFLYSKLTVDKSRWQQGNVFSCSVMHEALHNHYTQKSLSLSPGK
T2 sequence (Q9Y336 other isoform, or with tags, fused parts or gaps mutant): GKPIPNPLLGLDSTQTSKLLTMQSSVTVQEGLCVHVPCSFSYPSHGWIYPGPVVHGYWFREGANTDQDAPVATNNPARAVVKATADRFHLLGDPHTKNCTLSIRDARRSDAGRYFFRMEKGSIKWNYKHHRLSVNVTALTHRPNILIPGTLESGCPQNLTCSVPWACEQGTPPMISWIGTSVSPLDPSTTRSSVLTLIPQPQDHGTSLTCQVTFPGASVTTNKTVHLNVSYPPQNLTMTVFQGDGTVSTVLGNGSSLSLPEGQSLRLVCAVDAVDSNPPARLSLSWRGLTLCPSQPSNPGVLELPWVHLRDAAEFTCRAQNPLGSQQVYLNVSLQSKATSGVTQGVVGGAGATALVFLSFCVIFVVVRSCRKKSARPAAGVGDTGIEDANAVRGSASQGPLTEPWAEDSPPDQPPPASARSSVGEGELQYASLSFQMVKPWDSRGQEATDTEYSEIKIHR
T4 sequence (Q9Y336 other isoform, or with tags, fused parts or gaps mutant): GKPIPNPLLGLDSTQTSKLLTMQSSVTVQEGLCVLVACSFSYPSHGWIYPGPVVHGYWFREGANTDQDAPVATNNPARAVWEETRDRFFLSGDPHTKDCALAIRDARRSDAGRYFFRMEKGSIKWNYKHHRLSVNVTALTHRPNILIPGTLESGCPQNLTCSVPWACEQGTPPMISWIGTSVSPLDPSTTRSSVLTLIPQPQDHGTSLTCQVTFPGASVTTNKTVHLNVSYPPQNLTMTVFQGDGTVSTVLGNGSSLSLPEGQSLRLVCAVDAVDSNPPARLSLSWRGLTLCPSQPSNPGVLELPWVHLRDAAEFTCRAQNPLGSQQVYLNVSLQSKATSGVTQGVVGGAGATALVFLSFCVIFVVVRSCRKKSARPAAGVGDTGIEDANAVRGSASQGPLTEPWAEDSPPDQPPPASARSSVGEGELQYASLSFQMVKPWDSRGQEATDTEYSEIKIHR
T7 sequence (Q9Y336 other isoform, or with tags, fused parts or gaps mutant): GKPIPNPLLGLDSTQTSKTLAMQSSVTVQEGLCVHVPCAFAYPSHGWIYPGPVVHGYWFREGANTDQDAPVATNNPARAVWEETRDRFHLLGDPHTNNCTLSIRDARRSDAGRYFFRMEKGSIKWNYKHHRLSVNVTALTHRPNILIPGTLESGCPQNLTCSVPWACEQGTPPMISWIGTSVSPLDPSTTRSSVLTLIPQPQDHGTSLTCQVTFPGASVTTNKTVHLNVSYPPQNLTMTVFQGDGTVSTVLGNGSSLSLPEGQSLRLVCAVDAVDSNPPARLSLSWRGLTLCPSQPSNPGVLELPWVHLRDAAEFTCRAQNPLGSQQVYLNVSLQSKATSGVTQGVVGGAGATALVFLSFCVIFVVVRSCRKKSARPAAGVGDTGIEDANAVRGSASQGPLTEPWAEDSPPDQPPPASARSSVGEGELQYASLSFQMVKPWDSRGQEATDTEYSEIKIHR
T5 sequence (Q9Y336 other isoform, or with tags, fused parts or gaps mutant): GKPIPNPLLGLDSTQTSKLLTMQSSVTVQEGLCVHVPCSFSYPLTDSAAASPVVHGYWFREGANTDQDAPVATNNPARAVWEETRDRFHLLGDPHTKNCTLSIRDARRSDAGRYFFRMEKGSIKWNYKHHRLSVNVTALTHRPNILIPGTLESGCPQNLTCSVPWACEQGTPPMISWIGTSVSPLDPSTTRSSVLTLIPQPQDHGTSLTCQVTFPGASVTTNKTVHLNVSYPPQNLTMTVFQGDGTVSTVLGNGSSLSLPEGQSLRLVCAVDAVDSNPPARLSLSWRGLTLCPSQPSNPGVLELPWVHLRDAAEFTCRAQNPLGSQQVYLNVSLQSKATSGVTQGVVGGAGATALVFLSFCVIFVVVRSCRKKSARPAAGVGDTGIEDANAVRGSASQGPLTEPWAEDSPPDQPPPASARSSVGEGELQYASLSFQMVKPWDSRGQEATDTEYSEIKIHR
T6 sequence (Q9Y336 other isoform, or with tags, fused parts or gaps mutant): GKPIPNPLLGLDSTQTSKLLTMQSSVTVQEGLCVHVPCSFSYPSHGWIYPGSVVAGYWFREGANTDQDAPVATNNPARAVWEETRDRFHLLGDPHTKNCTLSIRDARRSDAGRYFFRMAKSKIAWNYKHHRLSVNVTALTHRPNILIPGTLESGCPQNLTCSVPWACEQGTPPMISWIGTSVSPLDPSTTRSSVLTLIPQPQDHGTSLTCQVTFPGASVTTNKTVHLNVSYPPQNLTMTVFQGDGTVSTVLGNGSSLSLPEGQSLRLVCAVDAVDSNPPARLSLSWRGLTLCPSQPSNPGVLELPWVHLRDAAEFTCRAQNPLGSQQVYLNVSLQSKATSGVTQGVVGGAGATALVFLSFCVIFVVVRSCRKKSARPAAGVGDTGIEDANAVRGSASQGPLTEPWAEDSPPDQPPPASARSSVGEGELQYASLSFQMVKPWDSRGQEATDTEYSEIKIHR
T3 sequence (chain, as listed by the source limits assumed): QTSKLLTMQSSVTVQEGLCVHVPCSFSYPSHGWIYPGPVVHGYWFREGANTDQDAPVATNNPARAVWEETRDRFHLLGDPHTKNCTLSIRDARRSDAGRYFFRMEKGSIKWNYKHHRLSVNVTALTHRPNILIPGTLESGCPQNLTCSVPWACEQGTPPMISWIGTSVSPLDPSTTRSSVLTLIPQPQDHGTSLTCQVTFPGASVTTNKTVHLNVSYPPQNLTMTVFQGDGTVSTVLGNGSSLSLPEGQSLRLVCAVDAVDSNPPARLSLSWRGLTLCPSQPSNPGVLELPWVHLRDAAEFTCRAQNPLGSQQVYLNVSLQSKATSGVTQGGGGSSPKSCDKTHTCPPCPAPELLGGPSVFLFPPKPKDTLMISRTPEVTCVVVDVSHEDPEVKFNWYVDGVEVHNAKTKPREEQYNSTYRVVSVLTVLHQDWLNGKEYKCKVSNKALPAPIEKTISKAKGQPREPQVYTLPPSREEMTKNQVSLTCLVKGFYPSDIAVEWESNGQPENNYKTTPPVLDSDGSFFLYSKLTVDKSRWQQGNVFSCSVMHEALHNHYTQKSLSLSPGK

B1: mAbD H1L1 (antibody, V domains shown)
VH: QVQLVQSGSELKKPGASVKVSCKASGYTFTDYSMHWVRQAPGQGLKWMGWIITETGEPTYADDFRGRFVFSLDTSVSTAYLQISSLKAEDTAVYYCARDFDGYWGQGTTVTVSS
VL: DIQMTQSPSSLSASVGDRVTITCRASENIYSYLAWYQQKPGKAPKFLIYNAKTLTEGVPSRFSGSGSGTDFTLTISSLQPEDFATYYCQHHYGFPWTFGGGTKVEIK
notes: constant region not specified
- EC50 (Human Siglec-9): 0.015 µg/mL

B2: mAbD H2L2 (antibody, V domains shown)
VH: B1 VH with Y95F
VL: B1 VL with S63R
notes: constant region not specified
- EC50 (Human Siglec-9): 0.021 µg/mL

B3: mAbD H2L0 (antibody, V domains shown)
VH: B1 VH with Y95F
VL: B1 VL with F46L
notes: constant region not specified
- EC50 (Human Siglec-9): 0.03 µg/mL

B4: mAbD H2L1 (antibody, V domains shown)
VH: B1 VH with Y95F
VL: B1 VL
notes: constant region not specified
- EC50 (Human Siglec-9): 0.016 µg/mL

B5: mAbD H1L0 (antibody, V domains shown)
VH: B1 VH
VL: B1 VL with F46L
notes: constant region not specified
- EC50 (Human Siglec-9): 0.019 µg/mL

B6: mAbD H0L2 (antibody, V domains shown)
VH: B1 VH with K46E
VL: B1 VL with S63R
notes: constant region not specified
- EC50 (Human Siglec-9): 0.02 µg/mL

B7: mAbD H0L1 (antibody, V domains shown)
VH: B1 VH with K46E
VL: B1 VL
notes: constant region not specified
- EC50 (Human Siglec-9): 0.01 µg/mL

B8: mAbD H1L2 (antibody, V domains shown)
VH: B1 VH
VL: B1 VL with S63R
notes: constant region not specified
- EC50 (Human Siglec-9): 0.019 µg/mL

B9: mAbD H0L0 (antibody, V domains shown)
VH: B1 VH with K46E
VL: B1 VL with F46L
notes: constant region not specified
- EC50 (Human Siglec-9): 0.019 µg/mL

B10: Fab.E (Fab of mAbE) (Fab, V domains shown)
VH: DVQLVESGGGLVQPGGSRKLSCAASGFTFSTFGMHWVRQAPEKGLEWVAYISSGSNAIYYADTVKGRFTISRDNPKNTLFLQMTSLRSEDTAMYYCASPGYGAWFAYWGQGTLVTVSA
VL: ENVLTQSPAIMSASPGEKVTMTCRASSSVSSAYLHWYQQKSGASPKLWIYSTSNLASGVPARFSGSGSGTSYSLTISSVEAEDAATYYCQQYSAYPYTFGGGTKLEIK
- binding result [1]: no binding
- Kd (Siglec-9 Fc protein): 1 nM
- koff (Siglec-9 Fc protein): 0.0019 s⁻¹
- binding result (Human Siglec-9 mutant M5): binds
- binding result (Human Siglec-9 mutant M6): binds
- binding result (Human Siglec-9 mutant M7): binds
- binding result (Human Siglec-9 mutant M2): binds

B11: Fab1 (Fab of mAb1) (Fab, V domains shown)
VH: DVQLQESGPGLVKPSQSLSLTCTVTGYSITGGFAWNWIRQFPGNTLEWMGYIGYGGSTSYNPSLNSRISITRDTSKNHFFLQFNSVTTDDSATYYCARGDYLFAYWGQGTLVTVSA
VL: DIVMTQSHKFMSTSVGDRVSITCKASQDVNTAVAWYQQKPGQSPKLLIYSASYRYTGVPDRFTGSGSGTDFTFTISSVQAEDLAVYYCQQHYSTPRTFGGGTKLEIK
- binding result [1]: no binding
- Kd (Siglec-7 Fc protein): 0.06 nM
- koff (Siglec-7 Fc protein): 4e-05 s⁻¹
- Kd (Siglec-9 Fc protein): 0.4 nM
- koff (Siglec-9 Fc protein): 0.00016 s⁻¹
- binding result (Human Siglec-9 mutant M5): binds
- binding result (Human Siglec-9 mutant M6): binds
- binding result (Human Siglec-9 mutant M8): binds
- binding result (Human Siglec-9 mutant M7): binds
- binding result (Human Siglec-9 mutant M2): binds

B12: Fab2 (Fab of mAb2) (Fab, V domains shown)
VH: B11 VH with D1E, D89E
VL: B11 VL
notes: Fab fragment of the antibody
- Kd (Siglec-7 Fc protein): 0.07 nM
- koff (Siglec-7 Fc protein): 4e-05 s⁻¹
- Kd (Siglec-9 Fc protein): 0.8 nM
- koff (Siglec-9 Fc protein): 0.00017 s⁻¹

B13: Fab.F (Fab of mAbF) (Fab, V domains shown)
VH: QVQLQQSGPEVVRPGVSVKISCKGSGYTFTDYSMHWVKQSHAKSLEWIGVISTYNGNTNYNQKFKGKATMTVDKSSSTAYMELARLTSEDSAIYYCARRGYYGSSSWFGYWGQGTLVTVSA
VL: DIVMTQSQKFMSTSVGDRVSVTCKASQNVGTDVAWYQQKPGQSPEALIYSASYRYSGVPDRFTGSGSGADFTLTISNVQSEDLAEYFCQQYNSFPYTFGGGTKLEIK
- binding result [1]: no binding
- Kd (Siglec-9 Fc protein): 1 nM
- koff (Siglec-9 Fc protein): 0.00046 s⁻¹
- binding result (Human Siglec-9 mutant M5): binds
- binding result (Human Siglec-9 mutant M6): binds
- binding result (Human Siglec-9 mutant M7): binds
- binding result (Human Siglec-9 mutant M2): binds

B14: mAbA H1L1 (antibody, V domains shown)
VH: QVQLVQSGAEVKKPGSSVKVSCKASGGTFSSYWMHWVRQAPGQGLEWMGEINPSNGHTNYNEKFESRVTITADESTSTAYMELSSLRSEDTAVYYCANGVESYDFDDALDYWGQGTTVTVSS
VL: DIQMTQSPSSLSASVGDRVTITCRASQDINNYLNWYQQKPGKAPKLLIYYTSRLHSGVPSRFSGSGSGTDYTFTISSLQPEDIATYYCQQGNTLPFTFGGGTKVEIK
notes: constant region not specified
- EC50 (Human Siglec-9): 0.033 µg/mL

B15: mAbA H0L2 (antibody, V domains shown)
VH: B14 VH with N98R
VL: B14 VL with P44I
notes: constant region not specified
- EC50 (Human Siglec-9): 0.034 µg/mL

B16: mAbA H3L1 (antibody, V domains shown)
VH: B14 VH with G26Y, G27F, E74R
VL: B14 VL
notes: constant region not specified
- EC50 (Human Siglec-9): 0.044 µg/mL

B17: mAbA H2L2 (antibody, V domains shown)
VH: B14 VH with G26Y, G27F
VL: B14 VL with P44I
notes: constant region not specified
- EC50 (Human Siglec-9): 0.032 µg/mL

B18: mAbA H3L2 (antibody, V domains shown)
VH: B14 VH with G26Y, G27F, E74R
VL: B14 VL with P44I
notes: constant region not specified
- EC50 (Human Siglec-9): 0.074 µg/mL

B19: mAbA H0L1 (antibody, V domains shown)
VH: B14 VH with N98R
VL: B14 VL
notes: constant region not specified
- EC50 (Human Siglec-9): 0.013 µg/mL

B20: mAbA H2L1 (antibody, V domains shown)
VH: B14 VH with G26Y, G27F
VL: B14 VL
notes: constant region not specified
- EC50 (Human Siglec-9): 0.029 µg/mL

B21: mAbA H0L0 (antibody, V domains shown)
VH: B14 VH with N98R
VL: B14 VL with Y71F
notes: constant region not specified
- EC50 (Human Siglec-9): 0.04 µg/mL

B22: mAbA H3L0 (antibody, V domains shown)
VH: B14 VH with G26Y, G27F, E74R
VL: B14 VL with Y71F
notes: constant region not specified
- EC50 (Human Siglec-9): 0.12 µg/mL

B23: mAbA H1L2 (antibody, V domains shown)
VH: B14 VH
VL: B14 VL with P44I
notes: constant region not specified
- EC50 (Human Siglec-9): 0.037 µg/mL

B24: mAbA H1L0 (antibody, V domains shown)
VH: B14 VH
VL: B14 VL with Y71F
notes: constant region not specified
- EC50 (Human Siglec-9): 0.045 µg/mL

B25: mAbA H2L0 (antibody, V domains shown)
VH: B14 VH with G26Y, G27F
VL: B14 VL with Y71F
notes: constant region not specified
- EC50 (Human Siglec-9): 0.034 µg/mL
